Measured values from patent EP3964526A1.

Key:
[1] = biological target: VEGF (as used in the VEGFR competition ELISA); experiment: competition ELISA against hVEGR1, EC50 ratio to reference Luc
[2] = biological target: recombinant human VEGF165 (PeproTech EC Ltd.) (human) (UniProt P15692); experiment: SPR BIAcore T100, hVEGF165 amine-coupled on CM4 chip, scFv as analyte
[3] = biological target: recombinant human TNF (hTNF) (human) (UniProt P01375); experiment: cell-based or functional assay; conditions: scale: ratio EC50 ESBA105 / EC50 test, in mass units [ng/ml]
Chain of recombinant human TNF (hTNF) (human) (P01375 77-233 limits assumed): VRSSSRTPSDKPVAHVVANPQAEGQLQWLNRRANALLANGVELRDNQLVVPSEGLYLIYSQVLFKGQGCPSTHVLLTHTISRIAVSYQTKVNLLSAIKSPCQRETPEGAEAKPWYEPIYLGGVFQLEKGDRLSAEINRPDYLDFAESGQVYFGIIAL

Chain of recombinant human VEGF165 (PeproTech EC Ltd.) (human) (P15692 other isoform, or with tags, fused parts or gaps limits assumed): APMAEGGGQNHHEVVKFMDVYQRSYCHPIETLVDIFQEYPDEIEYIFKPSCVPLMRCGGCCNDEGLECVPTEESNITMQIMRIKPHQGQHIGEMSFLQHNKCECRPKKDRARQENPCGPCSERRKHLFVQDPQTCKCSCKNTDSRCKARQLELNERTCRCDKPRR
Chain of VEGF (as used in the VEGFR competition ELISA) (P15692 whole entry): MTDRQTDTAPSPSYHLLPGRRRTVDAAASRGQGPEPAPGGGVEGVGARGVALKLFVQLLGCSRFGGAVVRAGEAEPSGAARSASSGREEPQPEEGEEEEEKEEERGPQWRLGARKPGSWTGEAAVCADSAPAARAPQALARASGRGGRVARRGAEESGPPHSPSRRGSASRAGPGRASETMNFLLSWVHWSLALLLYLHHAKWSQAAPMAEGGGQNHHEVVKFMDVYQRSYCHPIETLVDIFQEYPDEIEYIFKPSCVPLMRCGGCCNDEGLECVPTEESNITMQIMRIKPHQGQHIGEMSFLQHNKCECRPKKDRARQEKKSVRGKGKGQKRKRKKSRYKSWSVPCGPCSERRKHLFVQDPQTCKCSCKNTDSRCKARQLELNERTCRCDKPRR

Binder	L929* [EC50-E105 / EC50-X] [3]	also measured
509-maxll (scFv, from another filing) scFv: EIVMTQSPSTLSASVGDRVIITCQASQNIRIWLSWYQQKPGKAPKLLIYKASTLESGVPSRFSGSGSGTEFTLTISSLQPDDFATYYCQNNAHYSTNGGTFGQGTKLTVLGGGGGSGGGGSGGGGSGGGGSEVQLVESGGGLVQPGGSLRLSCTASGFSLSSYYMSWVRQAPGKGLEWVGILDYVGDTDYASWAKGRFTISKDASKNTVYLQMNSLRAEDTAVYYCARTDDSRGWGLNIWGQGTLVTVSS	–	Rel. activity hVEGR1 comp. ELISA (EC50Luc[nM]/EC50test[nM]) [1]: 0.09; Kd [2]: 3.37 nM; koff [2]: 0.00282 s⁻¹; kon [2]: 838000 M⁻¹ s⁻¹
EP6_max (scFv, from another filing) scFv: EIVMTQSPSTLSASVGDRVIITCQASESIYSGLAWYQQKPGKAPKLLIYQASTLASGVPSRFSGSGSGTDFTLAISSLQPDDFATYYCQQGFGTSNVENPFGQGTKLTVLGGGGGSGGGGSGGGGSGGGGSEVQLVESGGGLVQPGGSLRLSCTVSGFSLSRYGVSWVRQAPGKGLEWVGTIGEAGRAYYANWARSRSTISRDTSKNTVYLQMNSLRAEDTAVYYCARGEVFNNGWGAFNIWGQGTLVTVSS	1.1	–
EP15_max (scFv, from another filing) scFv: EIVMTQSPSTLSASVGDRVIITCQASENIYTSLAWYQQKPGKAPKLLIYSASTLASGVPSRFSGSGSGTEFTLTISSLQPDDFATYYCQQGFATSNVENPFGQGTKLTVLGGGGGSGGGGSGGGGSGGGGSEVQLVESGGGSVQPGGSLRLSCTVSGFSLSRYGVSWVRQAPGKGLEWVGAIGETGRAYYANWAKSRSTISRDTSKNTVYLQMNSLRAEDTATYYCARGEEFNNGWGAFNIWGQGTTVTVSS	0.39	–

Further lines, with some results ahead:

L929* [EC50-E105 / EC50-X] [3]	Binder	also measured
6.4	EP43_max (scFv, from another filing) scFv: EIVMTQSPSTLSASVGDRVIIKCQASQSISDWLAWYQQKPGKAPKLLIYGASRLASGFPSRFSGSGSGAEFTLTISGLEPADFATYYCQQGWSDSYVDNLFGQGTKLTVLGGGGGSGGGGSGGGGSGGGGSEVQLVESGGGLVQPGGSLRLSCTVSGFSLSSGAMSWVRQAPGKGLEWVGVIISSGATYYASWAKGRFTISKDTSKNTVYLQMNSLRAEDTAVYYCARGGPDDSNSMGTFDPWGQGTLVTVSS	–
10.5	EP34_max (scFv, from another filing) scFv: EIVMTQSPSTLSASLGDRVIITCQSSQSVYGNIWMAWYQQKSGKAPKLLIYQASKLASGVPSRFSGSGSGAEFSLTISSLQPDDFATYYCQGNFNTGDRYAFGQGTKLTVLGGGGGSGGGGSGGGGSGGGGSEVQLVESGGGLVQPGGSLRLSCTASGFTISRSYWICWVRQAPGKGLEWVACIYGDNDITPLYANWAKGRFPVSTDTSKNTVYLQMNSLRAEDTAVYYCARLGYADYAYDLWGQGTLVTVSS	–
5.2	EP35_max (scFv, from another filing) scFv: EIVMTQSPSTLSASVGDRVIITCQASQSISNLLAWYQQKPGKAPKLLIVAASKLASGVPSRFSGSGSGTEFTLTISSLQPDDFATYYCQQGWSHTNVDNTFGQGTKLTVLGGGGGSGGGGSGGGGSGGGGSEVQLVESGGGSVQPGGSLRLSCTASGFSFSVGYWICWVRQAPGKGLEWVACIDAGTSGGTYYATWAKGRFTISKDTSKNTVYLQMNSLRAEDTATYYCARGVSSNGYYFKLWGQGTTVTVSS	–
